Where a chain is given by its changes, count along the chain named. Names may count otherwise. “And” between values parts separate entries of the source, which are not always exact repeats. Equal entries are not always repeated.
T1: recombinant protein consisting of the 149 C-terminal amino acids of NMMIIA (UniProt P35579 1812-1960)
T1 construct: non-muscle myosin heavy chain isoform IIA (NMMIIA), the 149 C-terminal amino acids; also called rNMMIIA; recombinant C-terminal fragment of non-muscle myosin II heavy chain; source: recombinant
T1 sequence (looked up): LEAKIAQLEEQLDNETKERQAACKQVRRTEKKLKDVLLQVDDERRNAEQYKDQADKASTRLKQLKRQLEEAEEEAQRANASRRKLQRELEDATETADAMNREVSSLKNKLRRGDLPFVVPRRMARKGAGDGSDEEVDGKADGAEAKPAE

B1: wild-type recombinant S100P protein (natural protein, human, UniProt P25815 1-95, looked up)
chain: MTELETAMGMIIDVFSRYSGSEGSTQTLTKGELKVLMEKELPGFLQSGKDKDAVDKLLKDLDANGDAQVDFSEFIVFVAAITSACHKYFEKAGLK
notes: S100P, human, 95-amino-acid monomer; cDNA encoding the wild-type protein in pET15b; primers on GenBank NM_005980 run from the ATG (95) to the stop codon (382); also called rS100P; wild-type rS100P; source: recombinant protein from a cDNA in pET15b vector; details in Supplementary Methods S1
B2: K95A mutant recombinant S100P protein (natural protein, human, UniProt P25815 1-95, looked up)
chain: B1 chain with K95A
notes: S100P, human, 95 amino acids, with the C-terminal lysine replaced by alanine; Identity confirmed by mass spectrometry; also called K95A S100P; K95A mutant rS100P; source: recombinant protein from pET15b vector after site-directed mutagenesis; details in Supplementary Methods S1
B3: ΔK95 mutant recombinant S100P protein (natural protein, human, UniProt P25815 1-95, looked up)
chain: MTELETAMGMIIDVFSRYSGSEGSTQTLTKGELKVLMEKELPGFLQSGKDKDAVDKLLKDLDANGDAQVDFSEFIVFVAAITSACHKYFEKAGL
notes: S100P, human, with the C-terminal lysine (K95) deleted, so that the chain ends with leucine 94; Identity confirmed by mass spectrometry; also called ΔK95 S100P; ΔK95 mutant rS100P; source: recombinant protein from pET15b vector after site-directed mutagenesis; details in Supplementary Methods S1

Molecular target: T1, recombinant protein consisting of the …
Experiment: resonant mirror biosensor (IAsys); rNMMIIA immobilised, rS100P variants in solution; dual-channel IAsys resonant mirror biosensor; association and dissociation curves fitted a single-site model at least as well as a two-site model; equilibrium and kinetic Kd
Details: both partners purified

Binder | Kd
B1 | 370 to 470 nM
B2 | 2300 nM and 4100 nM
B3 | 2700 nM and 6000 nM
